In patent US20230051715A1 (MABWELL THERAPEUTICS, published 2023):

T1: human C1s proenzyme (CompTech A103) (human, UniProt P09871 16-688)
T1 construct: also called proenzyme human C1s (native C1s)
T1 sequence (looked up): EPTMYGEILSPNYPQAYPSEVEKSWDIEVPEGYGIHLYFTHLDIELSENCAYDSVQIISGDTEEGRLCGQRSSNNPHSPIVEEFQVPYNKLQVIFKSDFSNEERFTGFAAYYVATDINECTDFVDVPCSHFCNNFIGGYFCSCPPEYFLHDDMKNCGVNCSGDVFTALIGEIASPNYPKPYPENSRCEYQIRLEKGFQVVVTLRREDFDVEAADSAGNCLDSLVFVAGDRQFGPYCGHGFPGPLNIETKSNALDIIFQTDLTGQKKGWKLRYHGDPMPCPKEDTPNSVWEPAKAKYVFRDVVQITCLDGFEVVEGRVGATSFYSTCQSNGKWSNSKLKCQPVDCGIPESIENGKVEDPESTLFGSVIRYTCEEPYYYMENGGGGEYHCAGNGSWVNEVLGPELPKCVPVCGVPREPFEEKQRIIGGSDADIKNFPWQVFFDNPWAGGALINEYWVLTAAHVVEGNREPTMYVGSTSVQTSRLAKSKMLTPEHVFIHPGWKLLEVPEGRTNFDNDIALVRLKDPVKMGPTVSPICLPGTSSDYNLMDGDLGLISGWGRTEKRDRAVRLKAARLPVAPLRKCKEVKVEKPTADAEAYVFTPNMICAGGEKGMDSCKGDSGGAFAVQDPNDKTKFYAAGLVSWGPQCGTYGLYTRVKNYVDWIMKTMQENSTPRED

T2: active human C1s (CompTech A104 C1s Enzyme) (human, UniProt P09871 16-688)
T2 construct: also called human active C1s; active C1s protein
T2 sequence (looked up): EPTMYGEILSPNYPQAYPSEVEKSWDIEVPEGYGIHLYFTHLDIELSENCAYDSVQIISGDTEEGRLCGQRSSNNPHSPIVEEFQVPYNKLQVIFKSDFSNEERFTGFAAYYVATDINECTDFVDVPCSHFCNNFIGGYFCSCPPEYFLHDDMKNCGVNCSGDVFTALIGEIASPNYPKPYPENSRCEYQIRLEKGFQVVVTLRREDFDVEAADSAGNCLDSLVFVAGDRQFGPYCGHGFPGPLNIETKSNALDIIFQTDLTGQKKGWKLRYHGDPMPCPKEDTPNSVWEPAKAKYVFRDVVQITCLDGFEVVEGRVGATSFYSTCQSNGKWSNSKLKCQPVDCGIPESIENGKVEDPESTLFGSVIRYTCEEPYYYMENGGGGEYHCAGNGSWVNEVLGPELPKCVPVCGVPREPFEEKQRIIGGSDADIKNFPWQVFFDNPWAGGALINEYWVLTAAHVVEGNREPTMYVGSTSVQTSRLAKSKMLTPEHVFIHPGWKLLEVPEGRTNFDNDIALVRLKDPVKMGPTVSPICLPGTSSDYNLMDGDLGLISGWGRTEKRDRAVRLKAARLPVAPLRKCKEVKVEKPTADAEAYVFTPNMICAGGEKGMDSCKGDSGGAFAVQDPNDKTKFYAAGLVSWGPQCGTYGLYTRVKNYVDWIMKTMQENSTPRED

T3: human C1s mutant M11 (S349P) (human, UniProt P09871 16-688)
T3 construct: The entry is the mutant itself
T3 sequence: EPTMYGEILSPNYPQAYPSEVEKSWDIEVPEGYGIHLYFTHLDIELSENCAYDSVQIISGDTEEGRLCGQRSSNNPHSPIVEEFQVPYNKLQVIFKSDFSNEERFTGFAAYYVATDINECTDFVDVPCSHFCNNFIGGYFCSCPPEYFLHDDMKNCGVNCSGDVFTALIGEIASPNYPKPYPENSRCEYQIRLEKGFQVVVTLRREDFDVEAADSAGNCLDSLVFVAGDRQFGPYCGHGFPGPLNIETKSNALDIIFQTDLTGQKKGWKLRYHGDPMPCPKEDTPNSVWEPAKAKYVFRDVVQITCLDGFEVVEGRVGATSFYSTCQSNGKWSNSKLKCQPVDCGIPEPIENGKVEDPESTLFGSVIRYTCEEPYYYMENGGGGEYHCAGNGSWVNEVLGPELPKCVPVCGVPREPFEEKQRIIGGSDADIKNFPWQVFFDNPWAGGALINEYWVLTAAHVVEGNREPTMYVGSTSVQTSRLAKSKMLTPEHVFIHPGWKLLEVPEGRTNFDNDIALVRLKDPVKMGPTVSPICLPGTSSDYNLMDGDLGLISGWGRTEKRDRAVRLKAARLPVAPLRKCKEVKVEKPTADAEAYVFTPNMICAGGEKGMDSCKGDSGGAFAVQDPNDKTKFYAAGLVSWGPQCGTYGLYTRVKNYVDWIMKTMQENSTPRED

B1: Anti-C1s antibody 2-7 (antibody, human IgG1, kappa, V domains shown)
VH: EVKLEESGGGLVPPGGSMKLSCVASGFTFSNYFMNWVRQSPEKGLEWVAEIRLKFTNYATHYAESVEGRFTISRDDSKSSVYLQMNNLRAEDTGIYYCTRDYGSRNGYFDYWGQGTTLTVSS
VL: DIVMTQAAPSVPVTPGESVSISCRSSKSLLHSNGNTFLYWFLQRPGQSPQLLIYRMSNLASGVPDRFSGSGSGTAFTLRVSRVEAEDVGIYYCMQHLEYPYTFGGGTKLEIKT
notes: the HC/LC entries may hold it too; also called clone 2-7
B2: Anti-C1s antibody 2-8 (antibody, V domains shown)
VH: EVQLQQSGAELVRPGALVKLSCKASGFNIKEYYMHWVKQRPEQGLEWIGWIDPENGDTIYDPKFQGKASITADTSSNTAYLQLSSLTSEDTAVYYCARSRLFFAYWGQGTLVTVSA
VL: DIVMTQSHKFMSTSVGDRVSFTCKASQDVRTAVDWYQQKPGQSPKLLIYSASYRYTGVPDRFTGTGSGTDFTFTISSVQAEDLAVYFCQQQYTTPYTFGGGTKLEIKT
notes: the HC/LC entries may hold it too; also called clone 2-8
B3: Anti-C1s antibody hz2-7(H1L2) (antibody, V domains shown)
VH: EVQLLESGGGLVQPGGSLRLSCAASGFTFSNYFMNWVRQAPGKGLEWVSEIRLKFTNYATHYADSVKGRFTISRDDSKSTLYLQMNSLRAEDTAVYYCTRDYGSRNGYFDYWGQGTLVTVSS
VL: DIVMTQTPLSLPVTPGEPASISCRSSKSLLHSNGNTFLYWFLQKPGQSPQLLIYRMSNLASGVPDRFSGSGSGTDFTLKISRVEAEDVGVYYCMQHLEYPYTFGGGTKLEIKR
notes: Humanized, human IgG1 / kappa; also called hz2-7(1L2)
B4: Anti-C1s antibody hz2-8 (H1L2 G80A) (antibody, V domains shown)
VH: QVQLVQSGAEVKKPGASVKVSCKASGFNIKEYYMHWVRQAPEQGLEWMGWIDPENADTIYAQKFQGRVTITADTSTNTAYMELSSLRSEDTAVYYCARSRLFFAYWGQGTLVTVSS
VL: DIQMTQSPKSLSASVGDRVTITCRASQDVRTALDWYQQKPGQSPKLLIYSASYRYSGVPSRFSGSGSGTDFTLTISSLQPEDFATYYCQQQYTTPYTFGQGTKLEIKR
notes: Humanized variant with G80A in HC CDR2 (already in the entry), human IgG1 / kappa
B5: Anti-C1s antibody hz2-8 (H1L2 G80A/T82A) (antibody, V domains shown)
VH: QVQLVQSGAEVKKPGASVKVSCKASGFNIKEYYMHWVRQAPEQGLEWMGWIDPENADAIYAQKFQGRVTITADTSTNTAYMELSSLRSEDTAVYYCARSRLFFAYWGQGTLVTVSS
VL: DIQMTQSPKSLSASVGDRVTITCRASQDVRTALDWYQQKPGQSPKLLIYSASYRYSGVPSRFSGSGSGTDFTLTISSLQPEDFATYYCQQQYTTPYTFGQGTKLEIKR
notes: Humanized variant with G80A and T82A in HC CDR2 (already in the entry), human IgG1 / kappa

How the values were obtained:
[1] = target: T1, human C1s proenzyme (CompTech A103); test: ELISA, C1s coated on plate
Procedure: (§1) ELISA was carried out by first coating 96-well plates with 200 ng/well of human active C1s (CompTech A104, FIG. 3F) or human C1s proenzyme (CompTech A103, FIG. 3G) proteins overnight. The next morning, plates were blocked with SuperBlock T20 blocking buffer (Thermo Fisher Scientific Inc., Catalog No. 37536) for 1 h with gentle shaking. Then, various concentrations of anti-C1s antibodies diluted in SuperBlock T20 blocking buffer were added to the plates and incubated for 1 h with gentle shaking. Human IgG1 (BioXCell BP0297) was used as a negative control. The plates were washed before incubating with HRP conjugated secondary antibodies diluted in SuperBlock T20 blocking buffer (goat anti-human IgG antibody, HRP conjugate (Millipore AP309P)) for 1 h with gentle shaking. At last, the plates were washed and color developed with ELISA liquid substrate (Sigma-Aldrich), followed by stopping the reaction with addition of the same volume of […] 1M H₂SO₄. Bound antibody was measured by absorbance at OD₄₅₀ₙₘ.
(§2) The EC₅₀ for each antibody and target combination was determined as follows: for antibody 2-7, EC₅₀ for human active C1s is 12 ng/ml and EC₅₀ for human C1s proenzyme is 9 ng/ml; for antibody 2-8, EC₅₀ for human active C1s is 12 ng/ml and EC₅₀ for human C1s proenzyme is 10 ng/ml; for variant hz2-7(1L2), EC₅₀ for human active C1s is 13 ng/ml and EC₅₀ for human C1s proenzyme is 12 ng/ml; and for variant hz2-8(H1L2 G80A/T82A), EC₅₀ for human active C1s is 10 ng/ml and EC₅₀ for human C1s proenzyme is 8 ng/ml.

[2] = target: T2, active human C1s (CompTech A104 C1s …); test: ELISA, C1s coated on plate
Procedure: as §1, §2

[3] = target: T3, human C1s mutant M11 (S349P); test: ELISA, plate coated with human C1s mutant M11: S349P, OD450nm
Procedure: ELISA was carried out by first coating 96-well plates with 200 ng/well of full-length or truncated C1s proteins overnight. The next morning, plates were blocked with SuperBlock T20 blocking buffer (Thermo Scientific 37536) for 1 h with gentle shaking. Then, various concentrations of anti-C1s antibodies diluted in SuperBlock T20 blocking buffer were added to the plates and incubated for 1 h with gentle shaking. Mouse IgG (Sigma-Aldrich 15381) and human IgG1 (BioXCell BP0297) were used as negative controls. The plates were washed before incubating with HRP conjugated secondary antibodies diluted in SuperBlock T20 blocking buffer (goat anti-mouse IgG (H+L) cross-adsorbed secondary antibody HRP (Invitrogen G-21040) or goat anti-human IgG antibody, HRP conjugate (Millipore AP309P)) for 1 h with gentle shaking. At last, the plates were washed and color developed with ELISA liquid HRP substrate (Sigma-Aldrich), followed by stopping the reaction with addition of 1M H₂SO₄ in the same volume as the ELISA liquid substrate. Bound antibody was measured by absorbance at OD₄₅₀ₙₘ.
Binding of anti-C1s antibodies to mutants M1-M20 of human C1s was measured by ELISA as described in Example 4, and results are shown in FIGS. 6B-6U. All anti-C1s humanized variants including hz2-7(H1L2), hz2-8(H1L2 G80A) and hz2-8(H1L2 G80A/T82A) maintained strong binding properties to the majority (16 out of 20) of C1s mutants including M1 (FIG. 6B), M2 (FIG. 6C), M3 (FIG. 6D). M4 (FIG. 6E), M7 (FIG. 6H), M8 (FIG. 6I), M10 (FIG. 6K), M11 (FIG. 6L), M12 (FIG. 6M), M13 (FIG. 6N), M15 (FIG. 6P), M16 (FIG. 6Q), M17 (FIG. 6R), M18 (FIG. 6S), M19 (FIG. 6T) and M20 (FIG. 6U).

Binder	EC50 [1] [mg/L]	EC50 [2] [mg/L]	EC50 [3] [mg/L]
B1	0.009	0.012	
B2	0.01	0.012	
B3	0.012	0.013	0.005
B4			0.004
B5	0.008	0.01	0.005
